Measurements: paper PMC10203282, “Structural analysis of an endogenous 4-megadalton succinyl-CoA-generating metabolon” (Communications Biology, 2023)

B1: OGDHc (E2o as CoA site) (Thermochaetoides thermophila DSM 1495) (protein)
chain: TYADKIIKVPQMAESITEGTLKQWNKAVGDYVEADEEIATIETDKIDVAVNAPEAGVIKEFFVNEEDTVLVGQDLVRLEVGGEKPAEAAKEQPKAAAPEPKVEEKKVPEAPAPEPSKTAAPAPAPPKQEAPASPKPASKPAETPAVTLGNREERRVKMNRMRLRIAERLKQSQNTAASLTTFNEVDMSALIEFRNKYKDEVLKKTGVKLGFMSAFSRAVVLAIRDLPVVNASIEGPNGGDTIVYRDYVDISVAVATEKGLVTPVVRNAETMDLITIEKTIAELGKKARDGKLTIEDMAGGTFTISNGGVFGSLMGTPIINLPQSAVLGLHAIKERPVAVNGKVEIRPMMYLALTYDHRLLDGREAVQFLVKVKEYIEDPRKMLL
notes: same complex as P1: endogenous native OGDHc in SEC fraction 6 of cell extract; with 2-oxoglutarate dehydrogenase, mitochondrial; Dihydrolipoyl dehydrogenase, mitochondrial; Alpha-ketoglutarate dehydrogenase subunit 4, mitochondrial

Assays:
[1] = biological target: dihydrolipoyl succinyltransferase (E2o) of the oxoglutarate dehydrogenase complex (Chaetomium thermophilum (endogenous in the native cell extract)); experiment: cryo-EM structure; native SEC fraction of C. thermophilum lysate, 0.3 mg/mL, single-particle analysis with octahedral symmetry; E2o core map at 3.35 Å
[2] = substrate: CC(C)(COP(=O)(O)OP(=O)(O)OC[C@H]1O[C@@H](n2cnc3c(N)ncnc32)[C@H](O)[C@@H]1OP(=O)(O)O)[C@@H](O)C(=O)NCCC(=O)NCCS; experiment: cells, lysate or membranes; assay type: biochemical, Thermochaetoides thermophila; conditions: native SEC fraction, 4 mM α-ketoglutarate, 3 mM NAD+, 2 mM ThDP, 2 mM MgCl2, 100 mM NaCl, 30 mM K2HPO4 pH 7.5, 37 °C, CoA 5-1000 µM, substrate excess inhibition, linear asymptote used

| Molecule | stoichiometry N [1] | Km [2] [µM] |
| --- | --- | --- |
| dihydrolipoyl succinyltransferase (E2o) of the oxoglutarate dehydrogenase complex (enzyme) | 24 | – |
| B1 | – | 22.81 ± 11.93 |
